Measurements as given in publication PMC9142583, “Structural basis for broad anti-phage immunity by DISARM” (Nature Communications, 2022).

Columns and labels:
[1] = molecular target: T1, DrmA(∆loop) / DrmA(∆TL);DrmB (Serratia sp. SCBI;Serratia sp. SCBI, UniProt A0A979HMQ0;A0A979HMQ1 1-1325;1-619, del181-233|); test: EMSA; 1 µM protein; EMSA: 150 mM NaCl, 25 mM HEPES pH 7.4, 30 min room temperature, 5 nM DNA; 1.5% agarose, 1x TBE; details: protein: recombinant;recombinant, tags: none stated;tagged (Ni-NTA purification), copies: 1;1, label: 5'-Cy5 on strand 1
[2] = molecular target: T2, DrmA;DrmB (Serratia sp. SCBI;Serratia sp. SCBI, UniProt A0A979HMQ0;A0A979HMQ1 1-1325;1-619, |); test: as above; details: protein: recombinant;recombinant, tags: none stated;tagged (Ni-NTA purification), copies: 1;1, label: 5'-Cy5 on strand 1
[3] = molecular target: T2, DrmA;DrmB; test: EMSA; binding at 1 µM protein or higher; smeared (dissociation); EMSA: 150 mM NaCl, 25 mM HEPES pH 7.4, 30 min room temperature, 5 nM DNA; 1.5% agarose, 1x TBE; details: protein: recombinant;recombinant; tags: none stated;tagged (Ni-NTA purification); copies: 1;1; label: 5'-Cy5; single strand
[4] = molecular target: T1, DrmA(∆loop) / DrmA(∆TL);DrmB; test: EMSA; no dissociation smear; second super-shift at 1 µM or higher; EMSA: 150 mM NaCl, 25 mM HEPES pH 7.4, 30 min room temperature, 5 nM DNA; 1.5% agarose, 1x TBE; details: protein: recombinant;recombinant; tags: none stated;tagged (Ni-NTA purification); copies: 1;1; label: 5'-Cy5; single strand
[5] = molecular target: T2, DrmA;DrmB; test: cryo-EM; 1 mM ADP; EMSA: 150 mM NaCl, 25 mM HEPES pH 7.4, 30 min room temperature, 5 nM DNA; 1.5% agarose, 1x TBE; details: protein: recombinant;recombinant; tags: none stated;tagged (Ni-NTA purification); copies: 1;1; label: none; hairpin; 19-bp stem, 5-nt loop, 5' tail 7 nt, 3' tail 21 nt (Methods: 6 and 20)

B1: 3'ovh DNA (75-nt + 5' block) (mixed)
DNA 1: ATTTTGACAGCCCACATGGCTTGATGAGTGGCGCACTCGCCAGCCTGAGCATGGCGAAAACTCCTCCAGTCTGCT
DNA 2: GCCATGTGGGCTGTCAAAAT
[1]; 3' overhang 55 nt
  binding result: binds
[2]; 3' overhang 55 nt
  binding result: no binding

B2: 75-bp dsDNA (dsDNA)
DNA 1: B1 DNA 1
DNA 2: AGCAGACTGGAGGAGTTTTCGCCATGCTCAGGCTGGCGAGTGCGCCACTCATCAAGCCATGTGGGCTGTCAAAAT
[1]; blunt
  binding result: binds
[2]; blunt
  binding result: no binding

B3: 5'ovh DNA (75-nt + 3' block) (mixed)
DNA 1: B1 DNA 1
DNA 2: AGCAGACTGGAGGAGTTTTC
[1]; 5' overhang 55 nt
  binding result: binds
[2]; 5' overhang 55 nt
  binding result: binds

B4: 75-nt Cy5 ssDNA (ssDNA)
DNA: B1 DNA 1
[3]
  binding result: binds
[4]
  binding result: binds

B5: DNA stem loop (forked hairpin) (structured_DNA)
DNA: TTTTTTTCATCGATGAGCACTGCTATTCCCTAGCAGTGCTCATCGATGATTTTCATCGATGAGCGGTTTT
modifications: none (unmethylated)
[5]
  binding result: binds
